From PMC10516921 (Nature Communications, 2023)

B1: Gallus gallus ferroptosis suppressor protein 1, full length (enzyme, Gallus gallus (chicken), UniProt E1BR24 1-373, looked up)
chain: MGSRLSVDDSVRVVIVGGGFGGIAAASQLKSWAVPFVLVDMRDAFHHNVAALRASVESGFARKTFISYSVTFGDSFRQGKVVGIDPERQQVLLSDGEELHYSHLILATGSDGPFPGKFNKVIDMESAIQTYEDMVKEIEKSERILVVGGGAAGVEMAAEIKTEYPAKEVTLIHSKIALADVELLQSVRQEVKEILLRKGVRLLLSEKVSNVENLTTNQFQKDMVVRTEKGTEVVVDMVVLCTGIKINSSAYATAFGDKLASNGALNVNKHLQLEGYDNIYAIGDCANLKEPKMAYHAELHANIVVSNIINSLTHKPLKTYQPGSLTFLLSMGKNDGVGQVKGYYVGHLLVTIAKSRDLFVSKSWKTMGQPMPS
notes: Ferroptosis suppressor protein 1 (FSP1, AIFM2) of chicken (Gallus gallus), full length, residues 1-373; gene optimized and synthesized, in pET-22b; also called cFSP1; chicken FSP1; source: E. coli BL21 (DE3), purified (Ni-Chelating Sepharose, Superdex 200 Increase)
B2: human FSP1 residues 1-316 (hFSP1^ΔCTD), recombinant from E. coli (domain or fragment, UniProt Q9BRQ8 1-316, looked up)
chain: MGSQVSVESGALHVVIVGGGFGGIAAASQLQALNVPFMLVDMKDSFHHNVAALRASVETGFAKKTFISYSVTFKDNFRQGLVVGIDLKNQMVLLQGGEALPFSHLILATGSTGPFPGKFNEVSSQQAAIQAYEDMVRQVQRSRFIVVVGGGSAGVEMAAEIKTEYPEKEVTLIHSQVALADKELLPSVRQEVKEILLRKGVQLLLSERVSNLEELPLNEYREYIKVQTDKGTEVATNLVILCTGIKINSSAYRKAFESRLASSGALRVNEHLQVEGHSNVYAIGDCADVRTPKMAYLAGLHANIAVANIVNSVKQR
notes: FSP1 (AIFM2), human, residues 1-316; lacks the C-terminal domain; source: E. coli BL21 (DE3), purified (Ni-Chelating Sepharose, Ulp1 cleavage, Superdex 200 Increase); not shown: His6, N-terminal, cleaved; SUMO, N-terminal, cleaved
B3: Gallus gallus FSP1 residues 1-318 (cFSP1^ΔCTD) (domain or fragment, Gallus gallus (chicken), UniProt E1BR24 1-318, looked up)
chain: MGSRLSVDDSVRVVIVGGGFGGIAAASQLKSWAVPFVLVDMRDAFHHNVAALRASVESGFARKTFISYSVTFGDSFRQGKVVGIDPERQQVLLSDGEELHYSHLILATGSDGPFPGKFNKVIDMESAIQTYEDMVKEIEKSERILVVGGGAAGVEMAAEIKTEYPAKEVTLIHSKIALADVELLQSVRQEVKEILLRKGVRLLLSEKVSNVENLTTNQFQKDMVVRTEKGTEVVVDMVVLCTGIKINSSAYATAFGDKLASNGALNVNKHLQLEGYDNIYAIGDCANLKEPKMAYHAELHANIVVSNIINSLTHKPLK
notes: FSP1 (AIFM2) of chicken (Gallus gallus), residues 1-318; lacks the C-terminal domain (319-373); source: E. coli BL21 (DE3), purified (Ni-Chelating Sepharose, Superdex 200 Increase)
B4: Gallus gallus FSP1 residues 12-373 (cFSP1^ΔN), not methylated (domain or fragment, Gallus gallus (chicken), UniProt E1BR24 12-373, looked up)
chain: RVVIVGGGFGGIAAASQLKSWAVPFVLVDMRDAFHHNVAALRASVESGFARKTFISYSVTFGDSFRQGKVVGIDPERQQVLLSDGEELHYSHLILATGSDGPFPGKFNKVIDMESAIQTYEDMVKEIEKSERILVVGGGAAGVEMAAEIKTEYPAKEVTLIHSKIALADVELLQSVRQEVKEILLRKGVRLLLSEKVSNVENLTTNQFQKDMVVRTEKGTEVVVDMVVLCTGIKINSSAYATAFGDKLASNGALNVNKHLQLEGYDNIYAIGDCANLKEPKMAYHAELHANIVVSNIINSLTHKPLKTYQPGSLTFLLSMGKNDGVGQVKGYYVGHLLVTIAKSRDLFVSKSWKTMGQPMPS
notes: FSP1 (AIFM2) of chicken (Gallus gallus), residues 12-373; lacks the N-terminal myristoylation motif (residues 1-11); Same limits as the crystallized, methylated protein; also called native cFSP1^ΔN; source: E. coli BL21 (DE3), purified (Ni-Chelating Sepharose, Superdex 200 Increase)
B5: Gallus gallus FSP1 residues 12-373 (cFSP1^ΔN), reductively methylated (domain or fragment, Gallus gallus (chicken), UniProt E1BR24 12-373, looked up)
chain: B4 chain
modifications: surface lysine residues modified by reductive methylation (formaldehyde and dimethylamine-borane complex)
notes: FSP1 (AIFM2) of chicken (Gallus gallus), residues 12-373; lacks the N-terminal myristoylation motif (residues 1-11); Crystallized substrate-free and with CoQ1; A selenomethionine derivative was used for phasing; also called methylated cFSP1^ΔN; source: E. coli BL21 (DE3), purified (Ni-chelating resin, HiTrap Heparin, reductive methylation, Superdex 200 Increase)

Experiments:
[1] = molecular target: human ferroptosis suppressor protein 1, full length, recombinant from E. coli (human) (UniProt Q9BRQ8); test: dynamic light scattering; DynaPro NanoStar, 8 °C or 20 °C, 5-10 μM protein in buffer B; also with NADH
[2] = molecular target: the molecule itself; test: SEC; Superdex 200 Increase 10/300 GL, buffer B (20 mM Tris-HCl pH 8.0, 150 mM NaCl), 0.5 ml/min, 20 °C, molecular weight markers
[3] = molecular target: the molecule itself; test: SEC + other: dynamic light scattering; in solution; the sentence points to Supplementary Fig. 4 as a whole (gel filtration in panels a, b; DLS in panel c)

Row | Molecule | stoichiometry N [2] | stoichiometry N [3] | further results
1 | human ferroptosis suppressor protein 1, full length, recombinant from E. coli (from UniProt Q9BRQ8 1-373) (enzyme) | – | – | stoichiometry N [1]: 2
2 | B1 | 2 | – | –
3 | B2 | – | 2 | –
4 | B3 | – | 2 | –
5 | B4 | 2 | – | –
6 | B5 | 2 | – | –
